This is an account of results in article PMC4265155, “A highly charged region in the middle domain of plant endoplasmic reticulum (ER)-localized heat-shock protein 90 is required for resistance to tunicamycin or high calcium-induced ER stresses” (Journal of Experimental Botany, 2014).

Substrate in this series: Nc1ncnc2c1ncn2[C@@H]1O[C@H](COP(=O)(O)OP(=O)(O)OP(=O)(O)O)[C@@H](O)[C@H]1O
Description: NADH-coupled ATPase assay (pyruvate kinase / lactate dehydrogenase). In kind it is biochemical, Arabidopsis thaliana. As to conditions: geldanamycin-sensitive activity, 25 mM HEPES pH 7.5, 5 mM MgCl2, 400 mM KCl, 0.03% Tween 20, 10% glycerol. An excerpt: NADH-coupled ATPase assay (pyruvate kinase / lactate dehydrogenase) on HSP90.7 (AtHSP90.7; mature form R73–L823)

Where [1] appears, read: HSP90.7^Δ22 (D488–G509 deleted by SpeI cleavage and religation; a SpeI-site scar may remain).

B1: HSP90.7 (AtHSP90.7; mature form R73–L823) (Arabidopsis thaliana) (protein)
chain: RSNAEKFEFQAEVSRLMDIIINSLYSNKDIFLRELISNASDALDKIRFLALTDKDVLGEGDTAKLEIQIKLDKAKKILSIRDRGIGMTKEDLIKNLGTIAKSGTSAFVEKMQSSGDLNLIGQFGVGFYSAYLVADYIEVISKHNDDSQYVWESKANGKFAVSEDTWNEPLGRGTEIRLHLRDEAGEYLEESKLKELVKRYSEFINFPISLWASKEVETEVPVEEDESADEETETTSTEEEKEEDAEEEDGEKKQKTKKVKETVYEWELLNDVKAIWLRSPKEVTEEEYTKFYHSLSKDFTDEKPMAWSHFNAEGDVEFKAVLYVPPKAPHDLYESYYNSNKANLKLYVRRVFISDEFDELLPKYLSFLKGLVDSDTLPLNVSREMLQQHSSLKTIKKKLIRKALDMIRKLAEEDPDEIHDDEKKDVEKSGENDEKKGQYTKFWNEFGKSVKLGIIEDAANRNRLAKLLRFETTKSDGKLTSLDQYIKRMKKSQKDIFYITGSSKEQLEKSPFLERLIKKGYEVIFFTDPVDEYLMQYLMDYEDKKFQNVSKEGLKVGKDSKDKELKEAFKELTKWWKGNLASENVDDVKISNRLADTPCVVVTSKFGWSANMERIMQSQTLSDANKQAYMRGKRVLEINPRHPIIKELKDRIASDPEDESVKETAQLMYQTALIESGFILTDPKDFAARIYNSVKSGLNISPDAVADEEIEAAEEPETSEATETKSDDLAGGLNIEAEPVEQQEENTKDEL
notes: predicted mature form R73-L823, signal peptide removed, vector p11, E. coli BL21(DE3)-pRIL, His6-tag cut with TEV protease, size-exclusion purified
As usually defined, the Km is the concentration of substrate that gives half-maximal velocity. What is called kcat is the maximal rate divided by the concentration of active sites. For orientation: kcat/Km means the second-order rate constant that governs catalysis at low substrate concentration. Take B1: the Michaelis constant (Km) came out at 770 ± 180 µM, the catalytic constant (kcat) amounted to 0.0377 ± 0.00283 s⁻¹ and the kcat/Km amounted to 49 ± 15.2 M⁻¹ s⁻¹.

B2: HSP90.7 (AtHSP90.7; mature form R73–L823) (Arabidopsis thaliana; DEL488-509) (protein)
chain: RSNAEKFEFQAEVSRLMDIIINSLYSNKDIFLRELISNASDALDKIRFLALTDKDVLGEGDTAKLEIQIKLDKAKKILSIRDRGIGMTKEDLIKNLGTIAKSGTSAFVEKMQSSGDLNLIGQFGVGFYSAYLVADYIEVISKHNDDSQYVWESKANGKFAVSEDTWNEPLGRGTEIRLHLRDEAGEYLEESKLKELVKRYSEFINFPISLWASKEVETEVPVEEDESADEETETTSTEEEKEEDAEEEDGEKKQKTKKVKETVYEWELLNDVKAIWLRSPKEVTEEEYTKFYHSLSKDFTDEKPMAWSHFNAEGDVEFKAVLYVPPKAPHDLYESYYNSNKANLKLYVRRVFISDEFDELLPKYLSFLKGLVDSDTLPLNVSREMLQQHSSLKTIKKKLIRKALDMIRKLAEEDPQYTKFWNEFGKSVKLGIIEDAANRNRLAKLLRFETTKSDGKLTSLDQYIKRMKKSQKDIFYITGSSKEQLEKSPFLERLIKKGYEVIFFTDPVDEYLMQYLMDYEDKKFQNVSKEGLKVGKDSKDKELKEAFKELTKWWKGNLASENVDDVKISNRLADTPCVVVTSKFGWSANMERIMQSQTLSDANKQAYMRGKRVLEINPRHPIIKELKDRIASDPEDESVKETAQLMYQTALIESGFILTDPKDFAARIYNSVKSGLNISPDAVADEEIEAAEEPETSEATETKSDDLAGGLNIEAEPVEQQEENTKDEL
notes: as for B1
In the case of B2, under setting [1], the Km stood at 440 ± 110 µM, the kcat was found to be 0.039 ± 0.0025 s⁻¹ and the specificity constant (kcat/Km) is 89 ± 27.8 M⁻¹ s⁻¹.
